For seven sequences, Kd results are on record in the Immune Epitope Database (IEDB).

Assay [1] concerns the target HLA-B*18:01. Kind of assay: IEDB peptide-MHC binding, purified MHC/direct/fluorescence; filed as Kd, often an IC50 or EC50 that approximates it; ≥ and ≤ were set here for values at or beyond the usual limits of such assays.
Assay [2] has as its target HLA-A*02:12. The description is as above.
The target of assay [3] is HLA-A*02:11. Described as above.
For assay [4], the target named is HLA-A*02:19. Described as above.
For assay [5], the target named is HLA-A*03:01. The assay is described as above.
Assay [6] deals with HLA-A*02:03. The description is as above.
Assay [7] concerns the target HLA-B*15:01. The description is as above.
Assay [8] addresses HLA-B*57:01. The assay is described as above.
Assay [9] concerns the target HLA-B*46:01. Described as above.
Assay [10] addresses HLA-A*02:16. The description is as above.
For assay [11], the target named is HLA-A*24:03. Described as above.
The target of assay [12] is HLA-B*39:01. The assay is described as above.
In assay [13] the target is HLA-B*51:01. The assay is described as above.
Assay [14] has as its target HLA-B*27:03. The description is as above.
For assay [15], the target named is HLA-A*26:01. The assay is described as above.
In assay [16] the target is HLA-A*68:02. The description is as above.
Assay [17] addresses HLA-A*69:01. The assay is described as above.
Assay [18] deals with HLA-B*15:17. Described as above.
The target in assay [19] is HLA-A*26:03. Kind of assay: IEDB peptide-MHC binding, purified MHC/competitive/fluorescence; filed as Kd, often an IC50 or EC50 that approximates it; ≥ and ≤ were set here for values at or beyond the usual limits of such assays. To be noted: source organism: Mycobacterium tuberculosis C.
Assay [20] has as its target HLA-A*11:01. Kind of assay: IEDB peptide-MHC binding, purified MHC/direct/fluorescence; filed as Kd, often an IC50 or EC50 that approximates it; ≥ and ≤ were set here for values at or beyond the usual limits of such assays. To be noted: source organism: Mycobacterium tuberculosis.
Assay [21] addresses HLA-A*31:01. The assay is described as above. The conditions noted are these: source organism: Mycobacterium tuberculosis.
The target in assay [22] is HLA-B*48:01. Described as above.
Assay [23] concerns the target HLA-B*27:05. Described as above.
In assay [24] the target is HLA-B*58:01. The assay is described as above. The conditions noted are these: source organism: Mycobacterium tuberculosis.
Assay [25] addresses HLA-B*40:01. The description is as above. The conditions noted are these: source organism: Mycobacterium tuberculosis.
Assay [26] addresses HLA-A*02:01. The assay is described as above.
Assay [27] has as its target HLA-B*07:02. Described as above.
The target in assay [28] is HLA-A*01:01. The description is as above. To be noted: source organism: Mycobacterium tuberculosis.
For assay [29], the target named is HLA-C*14:02. The assay is described as above. The conditions noted are these: source organism: Human immunodeficiency virus 1.
For assay [30], the target named is HLA-C*15:02. The description is as above. The conditions noted are these: source organism: Human immunodeficiency virus 1.
Assay [31] deals with HLA-C*06:02. Described as above.
Assay [32] concerns the target HLA-B*35:01. The description is as above. The conditions noted are these: source organism: Mycobacterium tuberculosis str. Haarlem.
Assay [33] has as its target HLA-A*29:02. The description is as above. The conditions noted are these: source organism: Mycobacterium tuberculosis str. Haarlem.
Assay [34] has as its target HLA-B*15:42. Kind of assay: IEDB peptide-MHC binding, purified MHC/competitive/fluorescence; filed as Kd, often an IC50 or EC50 that approximates it; ≥ and ≤ were set here for values at or beyond the usual limits of such assays. To be noted: source organism: Homo sapiens.
Assay [35] deals with HLA-B*83:01. The assay is described as above. To be noted: source organism: Homo sapiens.
Assay [36] addresses HLA-B*45:06. The assay is described as above. The conditions noted are these: source organism: Homo sapiens.
In assay [37] the target is HLA-B*73:01. Nature of the assay: IEDB peptide-MHC binding, purified MHC/direct/fluorescence; filed as Kd, often an IC50 or EC50 that approximates it; ≥ and ≤ were set here for values at or beyond the usual limits of such assays.
[38] abbreviates: source organism: Cryptosporidium parvum Iowa II.
Where [39] appears, read: source organism: Mycobacterium tuberculosis.
The mark [40] stands for this setting: source organism: Mycobacterium tuberculosis str. Haarlem.
Setting [41] is: source organism: Yersinia enterocolitica.

By Kd is commonly meant the equilibrium constant for the complex coming apart. A high value points to lower affinity. In the case of ILTRLALFF, the dissociation constant Kd in assay [1] (setting [38]), in assay [2] (setting [38]), in assay [3] (setting [38]), in assay [4] (setting [38]), in [5] (setting [38]) and in assay [6] (setting [38]) was at least 20 µM each time. The Kd in assay [7] (setting [38]), in [8] (setting [38]), in assay [9] (setting [38]), in [10] (setting [38]), in assay [11] (setting [38]) and in assay [12] (setting [38]) was at least 20 µM in each case. Moreover, the dissociation constant (Kd) in assay [13] (setting [38]), in [14] (setting [38]), in assay [15] (setting [38]), in assay [16] (setting [38]), in [17] (setting [38]) and in assay [18] (setting [38]) was at least 20 µM each time.

For QINELHHSK, the dissociation constant Kd is at least 20 µM in assay [19]; at least 20 µM in [1] (setting [39]); 0.0685 µM in assay [20]; 0.335 µM in assay [21]; at least 20 µM in [22] (setting [39]); at least 20 µM in assay [7] (setting [39]). Further, the equilibrium dissociation constant (Kd) in assay [23] (setting [39]), in assay [8] (setting [39]), in [24], in assay [9] (setting [39]), in assay [25] and in assay [26] (setting [39]) was at least 20 µM in each case. For the same sequence, the Kd in [27] (setting [39]), in [28], in [16] (setting [39]) and in assay [18] (setting [39]) was at least 20 µM each time.

As to RMYSPVSIL, the figures for the Kd in assay [29], in assay [30] and in [31] (source organism: Human immunodeficiency virus 1) were 0.701 µM, 0.686 µM and 3.11 µM, respectively.

As for WASGVPAAT, the Kd in [1] (setting [40]), in assay [2] (setting [40]), in [3] (setting [40]), in assay [4] (setting [40]), in [5] (setting [40]) and in [6] (setting [40]) was at least 20 µM in each case. Besides, the dissociation constant Kd in assay [7] (setting [40]), in [8] (setting [40]), in [9] (setting [40]), in [10] (setting [40]), in assay [11] (setting [40]) and in assay [12] (setting [40]) was at least 20 µM throughout. Also, the Kd in assay [26] (setting [40]) was at least 20 µM; in [13] (setting [40]), at least 20 µM; in [27] (setting [40]), 6.5 µM; in [14] (setting [40]), at least 20 µM; in [15] (setting [40]) it was at least 20 µM; in [32], 0.317 µM. In assay [33], this sequence yielded a Kd of at least 20 µM.

Turning to YEHYFVFAA, the dissociation constant (Kd) is at least 5 µM in assay [34], at least 5 µM in [35], 0.379 µM in [36] and 0.0226 µM in [37] (source organism: Homo sapiens).

Turning to YLYDETQDV, the Kd in [2] (setting [40]) is 0.006 µM; in [6] (setting [40]) it was 0.002 µM; in assay [31] (source organism: Mycobacterium tuberculosis variant bovis BCG str. Pasteur 1173P2), 0.041 µM; in assay [17] (setting [39]), 1.24 µM.

As to YRLVSAVEK, the Kd is at least 20 µM in assay [37] (setting [41]), at least 20 µM in assay [22] (setting [41]) and 0.0299 µM in [23] (setting [41]).
